# Data reported in US20220380407A1 (WASHINGTON UNIVERSITY, published 2022).
# Where two headings read alike, the source gives them in different places. Positions of bridges follow the written chain, without caps; N, C: chain ends. Non-standard residues stand in square brackets, D forms with d. Primed or numbered codes have the meaning given here. No end group written: not given here. *: point of attachment. X10 = 1‑((2,4-dinitrophenyl)sulfonyl)piperidin‑4‑yl carbamate, O=C(OC1CCN(S(=O)(=O)c2ccc([N+](=O)[O-])cc2[N+](=O)[O-])CC1)*; X9 = 1‑((5-chloro-2-methoxyphenyl)sulfonyl)piperidin‑4‑yl carbamate, COc1ccc(Cl)cc1S(=O)(=O)N1CCC(OC(=O)*)CC1; X11 = 1‑((3-fluorophenyl)sulfonyl)piperidin‑4‑yl carbamate, O=C(OC1CCN(S(=O)(=O)c2cccc(F)c2)CC1)*; X8 = 1‑((4-chlorophenyl)sulfonyl)piperidin‑4‑yl carbamate, O=C(OC1CCN(S(=O)(=O)c2ccc(Cl)cc2)CC1)*; X13 = 1‑((2-fluorophenyl)sulfonyl)piperidin‑4‑yl carbamate, O=C(OC1CCN(S(=O)(=O)c2ccccc2F)CC1)*; X12 = 1‑(mesitylsulfonyl)piperidin‑4‑yl carbamate, Cc1cc(C)c(S(=O)(=O)N2CCC(OC(=O)*)CC2)c(C)c1; X5 = 1‑acetyl‑4‑phenethylpiperidin‑4‑yl carbamate, CC(=O)N1CCC(CCc2ccccc2)(OC(=O)*)CC1; X4 = 1‑(phenylsulfonyl)piperidin‑4‑yl carbamate, O=C(OC1CCN(S(=O)(=O)c2ccccc2)CC1)*; X3 = 4‑benzylpiperidin‑4‑yl carbamate, O=C(OC1(Cc2ccccc2)CCNCC1)*; X1 = 4‑phenylpiperidin‑4‑yl carbamate, O=C(OC1(c2ccccc2)CCNCC1)*; X7 = 1‑acetylpiperidin‑4‑yl carbamate, CC(=O)N1CCC(OC(=O)*)CC1; kbt″ = ketobenzothiazole (C-terminal Arg), c1ccc2sc(*)nc2c1; kbt = C-terminal Arg ketobenzothiazole; Fmoc = O=C(OCC1c2ccccc2-c2ccccc21)*; kt = C-terminal Arg ketothiazole; Cha = N[C@@H](CC1CCCCC1)C(=O)O
# T1: recombinant N-terminal His-tag HGFA serine protease domain (UniProt Q04756 373-655)
# T1 sequence (looked up): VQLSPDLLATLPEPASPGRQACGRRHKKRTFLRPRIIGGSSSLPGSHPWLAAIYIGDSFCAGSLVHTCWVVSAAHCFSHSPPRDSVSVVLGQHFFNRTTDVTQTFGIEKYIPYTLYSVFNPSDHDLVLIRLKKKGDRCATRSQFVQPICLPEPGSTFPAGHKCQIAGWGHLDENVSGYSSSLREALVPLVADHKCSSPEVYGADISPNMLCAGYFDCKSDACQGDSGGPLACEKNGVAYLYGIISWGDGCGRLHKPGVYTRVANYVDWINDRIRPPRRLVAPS
# T2: matriptase (#3946-SE-010, R&D Systems) (UniProt Q9Y5Y6 615-855)
# T2 sequence (looked up): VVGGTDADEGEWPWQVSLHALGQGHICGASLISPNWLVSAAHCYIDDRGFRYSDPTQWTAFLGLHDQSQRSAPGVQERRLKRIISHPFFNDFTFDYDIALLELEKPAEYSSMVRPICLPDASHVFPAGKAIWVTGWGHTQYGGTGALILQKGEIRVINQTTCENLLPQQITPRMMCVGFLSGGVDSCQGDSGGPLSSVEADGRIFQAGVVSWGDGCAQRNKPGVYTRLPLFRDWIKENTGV
# T3: KLK5 (#1108-SE-010, R&D Systems) (UniProt Q9Y337 23-293, limits assumed)
# T3 sequence (looked up): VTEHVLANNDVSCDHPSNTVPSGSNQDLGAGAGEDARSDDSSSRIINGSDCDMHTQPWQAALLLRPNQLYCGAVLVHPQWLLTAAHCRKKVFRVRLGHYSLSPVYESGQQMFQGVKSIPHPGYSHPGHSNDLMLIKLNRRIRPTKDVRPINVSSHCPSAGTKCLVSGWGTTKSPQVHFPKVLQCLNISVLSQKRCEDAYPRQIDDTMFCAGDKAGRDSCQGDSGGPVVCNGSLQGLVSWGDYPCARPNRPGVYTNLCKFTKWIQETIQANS
# Legend:
# Assay in all cases: cell-based or functional assay
# [1] = molecular target: T4, activated hepsin (#4776-SE-010, R&D Systems) (UniProt P05981 45-417, limits assumed)
# human TMPRSS2 = human TMPRSS2 (human, UniProt O15393 1-492)
# [2] = molecular target: T1, recombinant N-terminal His-tag HGFA …
# [3] = molecular target: T2, matriptase (#3946-SE-010, R&D Systems)
# [4] = molecular target: T5, recombinant thrombin (#1473-SE-010, R&D Systems) (UniProt P00734 44-622)
# [5] = molecular target: T4, activated hepsin (#4776-SE-010, R&D …); remark: listed apart in the source
# [6] = molecular target: T1, recombinant N-terminal His-tag HGFA …; remark: listed apart in the source
# [7] = molecular target: T6, Factor Xa (#1063-SE-010, R&D Systems) (UniProt P00742 41-488, limits assumed)
# [8] = molecular target: T2, matriptase (#3946-SE-010, R&D Systems); remark: listed apart in the source
# [9] = molecular target: T3, KLK5 (#1108-SE-010, R&D Systems)
# [10] = molecular target: T4, activated hepsin (#4776-SE-010, R&D …); remark: listed apart in the source
# [11] = molecular target: T1, recombinant N-terminal His-tag HGFA …; remark: listed apart in the source
# [12] = molecular target: T2, matriptase (#3946-SE-010, R&D Systems); remark: listed apart in the source
# [13] = molecular target: T5, recombinant thrombin (#1473-SE-010, R&D …); remark: listed apart in the source
# [14] = molecular target: T6, Factor Xa (#1063-SE-010, R&D Systems); remark: listed apart in the source
# T6 sequence (P00742 41-488 limits assumed): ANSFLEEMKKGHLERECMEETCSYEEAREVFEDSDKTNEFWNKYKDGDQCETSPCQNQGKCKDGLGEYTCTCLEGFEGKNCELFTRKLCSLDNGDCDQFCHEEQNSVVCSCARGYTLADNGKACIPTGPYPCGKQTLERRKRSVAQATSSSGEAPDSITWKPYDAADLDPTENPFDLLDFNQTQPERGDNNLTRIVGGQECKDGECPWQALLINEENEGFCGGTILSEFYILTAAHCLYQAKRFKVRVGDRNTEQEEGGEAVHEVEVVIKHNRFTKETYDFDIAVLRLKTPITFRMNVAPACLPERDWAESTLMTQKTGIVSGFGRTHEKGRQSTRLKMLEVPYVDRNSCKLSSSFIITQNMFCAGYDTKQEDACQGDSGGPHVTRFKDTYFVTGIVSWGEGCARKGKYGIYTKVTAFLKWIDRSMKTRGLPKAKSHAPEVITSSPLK
# T4 sequence (P05981 45-417 limits assumed): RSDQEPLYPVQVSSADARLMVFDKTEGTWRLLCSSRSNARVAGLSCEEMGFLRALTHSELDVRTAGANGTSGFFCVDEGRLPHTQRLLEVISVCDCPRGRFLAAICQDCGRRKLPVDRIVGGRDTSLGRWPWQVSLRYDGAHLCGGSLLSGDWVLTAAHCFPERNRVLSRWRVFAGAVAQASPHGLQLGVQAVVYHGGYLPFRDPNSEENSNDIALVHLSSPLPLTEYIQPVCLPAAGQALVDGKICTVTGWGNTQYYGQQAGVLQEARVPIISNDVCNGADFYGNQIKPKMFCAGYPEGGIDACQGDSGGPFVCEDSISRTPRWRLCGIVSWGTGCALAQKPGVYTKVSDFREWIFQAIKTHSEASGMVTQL
# Sequence of human TMPRSS2 (O15393 whole entry): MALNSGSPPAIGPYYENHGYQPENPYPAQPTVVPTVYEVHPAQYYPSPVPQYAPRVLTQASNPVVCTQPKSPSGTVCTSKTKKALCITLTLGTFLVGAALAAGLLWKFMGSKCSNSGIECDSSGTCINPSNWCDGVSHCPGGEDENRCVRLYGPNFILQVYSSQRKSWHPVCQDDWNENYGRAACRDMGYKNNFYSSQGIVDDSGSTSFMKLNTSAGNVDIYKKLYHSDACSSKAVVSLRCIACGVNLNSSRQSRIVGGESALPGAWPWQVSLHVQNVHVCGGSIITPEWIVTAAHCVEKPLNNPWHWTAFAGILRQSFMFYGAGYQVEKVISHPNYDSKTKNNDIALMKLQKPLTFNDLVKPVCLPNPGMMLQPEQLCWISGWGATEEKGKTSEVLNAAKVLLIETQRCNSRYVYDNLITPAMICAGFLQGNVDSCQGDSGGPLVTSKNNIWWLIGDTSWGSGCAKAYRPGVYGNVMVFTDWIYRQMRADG
binder,measurement,setting,value
"Ac-DQKR-kbt (lactam 1-3; also: N-terminal acetyl described as 6-acetamido) [Cyclo(DQK)R-kbt, VD3152]",Hepsin IC50,[1],22 nM
same,Calu-3 EC50,human TMPRSS2,138 nM
same,HGFA IC50,[2],16100 nM
same,Matriptase IC50,[3],7.7 nM
same,Thrombin* (IC50 nM),[4],> 20000 nM
same,Hepsin (IC50 nM),[5],22.2 nM
same,HGFA (IC50 nM),[6],16100 nM
same,Factor Xa* (IC50 nM),[7],> 20000 nM
same,Matriptase (IC50 nM),[8],7.7 nM
"Ac-WLFR-kbt [Ac-WLFR-kbt, ZFH7064]",Hepsin IC50,[1],0.79 nM
same,Calu-3 EC50,human TMPRSS2,150 nM
same,HGFA IC50,[2],266 nM
same,Matriptase IC50,[3],12 nM
"Ac-SKLR-kbt [Ac-SKLR kbt, ZFH7053]",KLK5 IC50,[9],2120 nM
Leu-Leu-Arg-{kbt-Val-NH2} (also: N-terminal cap inconsistent in filing (H or Ac)) [H-LLR-kbt V-amide ZFH7182],Hepsin IC50,[1],0.01 nM
same,Calu-3 EC50,human TMPRSS2,2060 nM
same,HGFA IC50,[2],44 nM
"Ac-SQLR-kt [Ac-SQLR-kt, ZFH6138]",KLK5 IC50,[9],3940 nM
"Ac-Leu-Leu-Arg-kt [Ac-LLR-kt, ZFH6201]",Hepsin IC50,[1],4.6 nM
same,Calu-3 EC50,human TMPRSS2,349 nM
same,HGFA IC50,[2],506 nM
same,Matriptase IC50,[3],56 nM
X11-Leu-Arg-kbt [1-((3-fluorophenyl)sulfonyl)piperidin-4-yl Leu-Arg-kbt carbamate (8j)],Hepsin IC50,[10],70 nM
same,HGFA IC50,[11],> 20000 nM
same,Matriptase IC50,[12],7500 nM
X13-Leu-Arg-kbt [1-((2-fluorophenyl)sulfonyl)piperidin-4-yl Leu-Arg-kbt carbamate (8g)],Hepsin IC50,[10],70 nM
same,HGFA IC50,[11],18000 nM
same,Matriptase IC50,[12],4500 nM
Ac-PQFR-kbt [MM3123 Ac-PQFR-kbt],Thrombin* (IC50 nM),[4],> 20 nM
same,Hepsin (IC50 nM),[5],0.136 nM
same,HGFA (IC50 nM),[6],75 nM
same,Factor Xa* (IC50 nM),[7],199 nM
same,Matriptase (IC50 nM),[8],0.316 nM
X3-Leu-Arg-kbt [4-benzylpiperidin-4-yl Leu-Arg-kbt carbamate (8b)],Thrombin IC50,[13],> 20000 nM
same,Hepsin IC50,[10],0.6 nM
same,HGFA IC50,[11],1200 nM
same,Factor Xa IC50,[14],6500 nM
same,Matriptase IC50,[12],30 nM
Fmoc-Pro-Arg-kbt [FmocPRkbt],KLK5 IC50,[9],3680 nM
X5-Leu-Arg-kbt [1-acetyl-4-phenethylpiperidin-4-yl Leu-Arg-kbt carbamate (8c)],Thrombin IC50,[13],7700 nM
same,Hepsin IC50,[10],0.5 nM
same,HGFA IC50,[11],> 20000 nM
same,Factor Xa IC50,[14],2000 nM
same,Matriptase IC50,[12],70 nM
X12-Leu-Arg-kbt [1-(mesitylsulfonyl)piperidin-4-yl Leu-Arg-kbt carbamate (8m)],Hepsin IC50,[10],110 nM
same,HGFA IC50,[11],8800 nM
same,Matriptase IC50,[12],> 20000 nM
Ac-MQFR-kbt [MM3130 Ac-MQFR-kbt],Thrombin* (IC50 nM),[4],> 20 nM
same,Hepsin (IC50 nM),[5],0.135 nM
same,HGFA (IC50 nM),[6],36.5 nM
same,Factor Xa* (IC50 nM),[7],342 nM
same,Matriptase (IC50 nM),[8],0.552 nM
X1-Leu-Arg-kbt,Thrombin IC50,[13],> 20000 nM
same,Hepsin IC50,[10],5 nM
same,HGFA IC50,[11],780 nM
same,Matriptase IC50,[12],90 nM
X1-[Cha]-Arg-{kbt″} [4-phenylpiperidin-4-yl Cha-Arg-kbt carbamate (8d)],Thrombin IC50,[13],> 20000 nM
same,Hepsin IC50,[10],90 nM
same,HGFA IC50,[11],> 20000 nM
same,Factor Xa IC50,[14],9000 nM
same,Matriptase IC50,[12],2100 nM
X4-Leu-Arg-kbt [1-(phenylsulfonyl)piperidin-4-yl Leu-Arg-kbt carbamate (8f)],Thrombin IC50,[13],> 20000 nM
same,Hepsin IC50,[10],20 nM
same,HGFA IC50,[11],8600 nM
same,Factor Xa IC50,[14],> 20000 nM
same,Matriptase IC50,[12],810 nM
Ac-IQFR-kbt [MM3116 Ac-IQFR-kbt],Thrombin* (IC50 nM),[4],> 20 nM
same,Hepsin (IC50 nM),[5],0.14 nM
same,HGFA (IC50 nM),[6],30.2 nM
same,Factor Xa* (IC50 nM),[7],792 nM
same,Matriptase (IC50 nM),[8],0.923 nM
Ac-Gln-Phe-Arg-kbt [MM3144 Ac-QFR-kbt],Thrombin* (IC50 nM),[4],> 20 nM
same,HGFA (IC50 nM),[6],13.8 nM
same,Factor Xa* (IC50 nM),[7],1.4 nM
"Ac-DMKR-kbt (lactam 1-3; not fully specified; printed as Cyclo(DMK)R-kbt; also: N-terminal acetyl described as 6-acetamido) [Cyclo(DMK)R-kbt, VD3173]",Hepsin IC50,[1],5.9 nM
same,Calu-3 EC50,human TMPRSS2,119 nM
same,HGFA IC50,[2],3240 nM
same,Matriptase IC50,[3],1 nM
same,Thrombin* (IC50 nM),[4],> 20000 nM
same,Hepsin (IC50 nM),[5],5.9 nM
same,HGFA (IC50 nM),[6],3240 nM
same,Factor Xa* (IC50 nM),[7],1400 nM
same,Matriptase (IC50 nM),[8],0.98 nM
{2‑phenyl‑1‑(piperidin-4-yl)ethyl carbamate}-Leu-Arg-kbt [2-phenyl-1-(piperidin-4-yl)ethyl Leu-Arg-kbt carbamate (11b)],Hepsin IC50,[10],2 nM
same,HGFA IC50,[11],6000 nM
same,Matriptase IC50,[12],20 nM
X8-Leu-Arg-kbt [1-((4-chlorophenyl)sulfonyl)piperidin-4-yl Leu-Arg-kbt carbamate (8i)],Hepsin IC50,[10],60 nM
same,HGFA IC50,[11],9000 nM
same,Matriptase IC50,[12],2400 nM
Fmoc-Trp-Arg-kbt [FmocWRkbt],KLK5 IC50,[9],4390 nM
X7-Leu-Arg-kbt [1-acetylpiperidin-4-yl Leu-Arg-kbt carbamate (8e)],Hepsin IC50,[10],20 nM
same,HGFA IC50,[11],> 20000 nM
same,Matriptase IC50,[12],640 nM
"Ac-Trp-Phe-Arg-kbt [Ac-WFR-kbt, PK-1-102A1]",KLK5 IC50,[9],> 20000 nM
Ac-LQFR-kbt [MM3131 Ac-LQFR-kbt],Thrombin* (IC50 nM),[4],> 20 nM
same,Hepsin (IC50 nM),[5],0.247 nM
same,HGFA (IC50 nM),[6],98.2 nM
same,Factor Xa* (IC50 nM),[7],219 nM
same,Matriptase (IC50 nM),[8],1.8 nM
"Ac-[dW]-Phe-Arg-kbt [Ac-dWFR-kbt, PK-1-89A1]",Hepsin IC50,[1],100 nM
same,Calu-3 EC50,human TMPRSS2,32 nM
same,HGFA IC50,[2],346 nM
same,Matriptase IC50,[3],29 nM
"X10-Leu-Arg-kbt [1-((2,4-dinitrophenyl)sulfonyl)piperidin-4-yl Leu-Arg-kbt carbamate (8k)]",Hepsin IC50,[10],110 nM
same,HGFA IC50,[11],> 20000 nM
same,Matriptase IC50,[12],10000 nM
"Ac-KQLR-kbt [Ac-KQLR-kbt, ZFH7006]",KLK5 IC50,[9],1790 nM
same,Hepsin IC50,[1],0.17 nM
same,Calu-3 EC50,human TMPRSS2,78 nM
same,HGFA IC50,[2],60 nM
same,Matriptase IC50,[3],1.1 nM
X9-Leu-Arg-kbt [1-((5-chloro-2-methoxyphenyl)sulfonyl)piperidin-4-yl Leu-Arg-kbt carbamate (8l)],Hepsin IC50,[10],60 nM
same,HGFA IC50,[11],6300 nM
same,Matriptase IC50,[12],4000 nM
Ac-GQFR-kbt [MM3122 Ac-GQFR-kbt],Thrombin* (IC50 nM),[4],> 20 nM
same,Hepsin (IC50 nM),[5],0.194 nM
same,HGFA (IC50 nM),[6],32.5 nM
same,Factor Xa* (IC50 nM),[7],700 nM
same,Matriptase (IC50 nM),[8],0.314 nM
